Experimental data: article PMC11189300, “Structure of the human KMN complex and implications for regulation of its assembly” (Nature Structural & Molecular Biology, 2024)

Experiments:
Settings in all cases: both partners purified
[1] = target: T1, KNL1 residues 2,021–2,342 (human, UniProt Q8NG31 2021-2342); assay: cryo-EM structure; eight-subunit KMN (full-length Mis12C, SPC24 109–197/SPC25 92–224, ZWINT, KNL1 2,021–2,342), 0.3 mg/ml with 0.003% Triton; reconstruction at 4.5 Å; model fitted from known structures and AF2 predictions and refined against the map
T1 construct: KNL1 (CASC5), human, C-terminal region, residues 2,021–2,342; numbering of isoform 1 of the CASC5 gene; also called KNL1_(2,021–2,342); Knl1_(2,021–2,342); source: E. coli BL21(DE3)-Codon-plus-RIPL, purified (glutathione-agarose, TEV cleavage, SEC)
T1 sequence (looked up): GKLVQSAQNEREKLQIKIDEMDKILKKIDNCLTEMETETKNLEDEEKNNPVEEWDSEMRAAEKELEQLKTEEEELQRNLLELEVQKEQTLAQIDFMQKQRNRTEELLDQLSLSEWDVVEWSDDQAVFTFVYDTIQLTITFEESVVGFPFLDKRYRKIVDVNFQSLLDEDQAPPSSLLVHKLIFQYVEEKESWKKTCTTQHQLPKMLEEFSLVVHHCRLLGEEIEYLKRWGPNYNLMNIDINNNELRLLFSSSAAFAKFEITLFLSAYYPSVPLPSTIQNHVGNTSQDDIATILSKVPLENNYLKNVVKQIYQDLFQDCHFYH

[2] = target: T2, Mis12 complex (Mis12C), full length: MIS12, PMF1, NSL1, DSN1 (human, UniProt Q9H081 1-205; Q6P1K2 1-205; Q96IY1 1-281; Q9H410 1-356); assay: BLI; Octet SA biosensors loaded with the biotinylated ligand, analyte at different concentrations; 25 °C; 50 mM HEPES pH 8.0, 150 mM NaCl, 2 mM TCEP, 0.05% Tween-20; which partner was loaded is not given
T2 construct: MIS12, human, subunit of the Mis12 complex; PMF1, human, subunit of the Mis12 complex; NSL1, human, subunit of the Mis12 complex; DSN1, human, subunit of the Mis12 complex (DSN1^SORT-HIS); In BLI one partner was biotinylated by sortase (GGGG-biotin peptide); also called Mis12C^WT; wild-type Mis12C; source: Tnao38 insect cells (baculovirus from pBIG1A), purified (Talon, SEC); copies: + + +
T2 sequence (looked up) 1: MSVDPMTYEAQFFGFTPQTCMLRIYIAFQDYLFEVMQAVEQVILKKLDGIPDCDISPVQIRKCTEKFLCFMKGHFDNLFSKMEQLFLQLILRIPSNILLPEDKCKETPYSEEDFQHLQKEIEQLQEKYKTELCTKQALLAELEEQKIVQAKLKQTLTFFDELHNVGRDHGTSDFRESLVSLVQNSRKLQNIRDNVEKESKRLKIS
T2 sequence (looked up) 2: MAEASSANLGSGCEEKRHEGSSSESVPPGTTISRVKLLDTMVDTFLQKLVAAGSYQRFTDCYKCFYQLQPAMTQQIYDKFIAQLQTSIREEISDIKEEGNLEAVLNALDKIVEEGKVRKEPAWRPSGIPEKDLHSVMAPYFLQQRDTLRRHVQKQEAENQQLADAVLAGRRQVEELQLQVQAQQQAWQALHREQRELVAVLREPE
T2 sequence (looked up) 3: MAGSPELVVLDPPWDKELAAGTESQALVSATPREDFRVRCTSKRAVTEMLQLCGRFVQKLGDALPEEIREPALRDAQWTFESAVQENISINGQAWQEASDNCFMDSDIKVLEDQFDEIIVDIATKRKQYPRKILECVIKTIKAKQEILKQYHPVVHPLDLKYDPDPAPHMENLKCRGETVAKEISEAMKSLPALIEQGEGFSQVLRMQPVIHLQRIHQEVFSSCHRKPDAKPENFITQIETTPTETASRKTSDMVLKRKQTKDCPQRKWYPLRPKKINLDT
T2 sequence (looked up) 4: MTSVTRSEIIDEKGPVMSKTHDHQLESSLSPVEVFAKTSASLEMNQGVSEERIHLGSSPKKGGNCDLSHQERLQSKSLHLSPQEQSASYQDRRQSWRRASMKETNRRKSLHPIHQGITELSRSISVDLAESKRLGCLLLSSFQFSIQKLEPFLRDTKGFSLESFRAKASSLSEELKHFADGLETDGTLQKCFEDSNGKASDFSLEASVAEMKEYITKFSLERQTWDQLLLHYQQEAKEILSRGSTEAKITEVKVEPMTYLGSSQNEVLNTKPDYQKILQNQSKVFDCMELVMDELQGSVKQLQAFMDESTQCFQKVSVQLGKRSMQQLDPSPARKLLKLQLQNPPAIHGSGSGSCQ

[3] = target: T2, Mis12 complex (Mis12C), full length: …; assay: ITC; PEAQ-ITC; 50 mM HEPES pH 8.0, 150 mM NaCl, 1 mM TCEP; 19 injections; one-site binding fit
[4] = target: T1, KNL1 residues 2,021–2,342; assay: SEC; KNL1 2,021–2,342, ZWINT, Mis12C and SPC24 109–197/SPC25 92–224 mixed equimolar on ice for at least 1 h; 50 mM HEPES pH 8.0, 150 mM NaCl, 2 mM TCEP; S200 5/150 column

B1: NSL1 (subunit of Mis12C in the KMN structure) (natural protein, human, UniProt Q96IY1 1-281, looked up)
chain: MAGSPELVVLDPPWDKELAAGTESQALVSATPREDFRVRCTSKRAVTEMLQLCGRFVQKLGDALPEEIREPALRDAQWTFESAVQENISINGQAWQEASDNCFMDSDIKVLEDQFDEIIVDIATKRKQYPRKILECVIKTIKAKQEILKQYHPVVHPLDLKYDPDPAPHMENLKCRGETVAKEISEAMKSLPALIEQGEGFSQVLRMQPVIHLQRIHQEVFSSCHRKPDAKPENFITQIETTPTETASRKTSDMVLKRKQTKDCPQRKWYPLRPKKINLDT
notes: NSL1, human; source: Tnao38 insect cells (baculovirus), co-expressed in Mis12C, purified (Talon, SEC)
B1: binds [1].

B2: PMF1 (subunit of Mis12C in the KMN structure) (natural protein, human, UniProt Q6P1K2 1-205, looked up)
chain: MAEASSANLGSGCEEKRHEGSSSESVPPGTTISRVKLLDTMVDTFLQKLVAAGSYQRFTDCYKCFYQLQPAMTQQIYDKFIAQLQTSIREEISDIKEEGNLEAVLNALDKIVEEGKVRKEPAWRPSGIPEKDLHSVMAPYFLQQRDTLRRHVQKQEAENQQLADAVLAGRRQVEELQLQVQAQQQAWQALHREQRELVAVLREPE
notes: PMF1, human; source: Tnao38 insect cells (baculovirus), co-expressed in Mis12C, purified (Talon, SEC)
B2: binds [1].

B3: KNL1 residues 2,026–2,342 (domain or fragment, human, UniProt Q8NG31 2026-2342, looked up)
chain: SAQNEREKLQIKIDEMDKILKKIDNCLTEMETETKNLEDEEKNNPVEEWDSEMRAAEKELEQLKTEEEELQRNLLELEVQKEQTLAQIDFMQKQRNRTEELLDQLSLSEWDVVEWSDDQAVFTFVYDTIQLTITFEESVVGFPFLDKRYRKIVDVNFQSLLDEDQAPPSSLLVHKLIFQYVEEKESWKKTCTTQHQLPKMLEEFSLVVHHCRLLGEEIEYLKRWGPNYNLMNIDINNNELRLLFSSSAAFAKFEITLFLSAYYPSVPLPSTIQNHVGNTSQDDIATILSKVPLENNYLKNVVKQIYQDLFQDCHFYH
notes: numbering of isoform 1 of the CASC5 gene; also called KNL1^WT; source: E. coli BL21(DE3)-Codon-plus-RIPL, purified (glutathione-agarose, TEV cleavage, SEC)
B3 showed a Kd [2] of roughly 2 nM and a Kd [3] of roughly 1.6 nM.

B4: ZWINT (natural protein, human, UniProt O95229 1-277, looked up)
chain: MEAAETEAEAAALEVLAEVAGILEPVGLQEEAELPAKILVEFVVDSQKKDKLLCSQLQVADFLQNILAQEDTAKGLDPLASEDTSRQKAIAAKEQWKELKATYREHVEAIKIGLTKALTQMEEAQRKRTQLREAFEQLQAKKQMAMEKRRAVQNQWQLQQEKHLQHLAEVSAEVRERKTGTQQELDRVFQKLGNLKQQAEQERDKLQRYQTFLQLLYTLQGKLLFPEAEAEAENLPDDKPQQPTRPQEQSTGDTMGRDPGVSFKAVGLQPAGDVNLP
notes: ZWINT, human; Probably made like the mutants (GST fusion, 3C cleaved); ZWINT was in the cryo-EM sample but is not visible in the map; also called ZWINT^WT
B4: binds [4].
